Consider 3 molecules from patent US20190359677A1 (published 2019).

The target in assay [1] is T1, MCV trLT and sT (large T and small T antigens of Merkel cell polyomavirus, shared exon 1) peptide on … (human).
T1 peptide: KLLEIAPNC
Put plainly: cytokine release.

The target of assay [2] is T2, MCV trLT (truncated large T antigen of Merkel cell polyomavirus) peptide on HLA-A*02:01 (human).
T2 peptide: SMFDEVDEA
Description: cytokine release.

B1: KLL-85 (TCR, V domains shown)
Valpha: GQQLNQSPQSMFIQEGEDVSMNCTSSSIFNTWLWYKQDPGEGPVLLIALYKAGELTSNGRLTAQFGITRKDSFLNISASIPSDVGIYFCAGQLNQGAQKLVFGQGTRLTINP
Vbeta: DAGVIQSPRHEVTEMGQEVTLRCKPISGHNSLFWYRQTMMRGLELLIYFNNNVPIDDSGMPEDRFSAKMPNASFSTLKIQPSEPRDSAVYFCASSFYSADTQYFGPGTRLTVL
Take B1: the binding result in assay [1] is reported as “recognises”.

B2: SMF-72 (TCR, V domains shown)
Valpha: AQTVTQSQPEMSVQEAETVTLSCTYDTSESDYYLFWYKQPPSRQMILVIRQEAYKQQNATENRFSVNFQKAAKSFSLKISDSQLGDAAMYFCAYRGTSGTYKYIFGTGTRLKVLA
Vbeta: DTGVSQDPRHKITKRGQNVTFRCDPISEHNRLYWYRQTLGQGPEFLTYFQNEAQLEKSRLLSDRFSAERPKGSFSTLEIQRTEQGDSAMYLCASSKLAGKNIQYFGAGTRLSVL
With B2, the results for the binding result in assay [1] and in assay [2] were “no recognition” and “recognises”, respectively.

B3: SMF-48 (TCR, V domains shown)
Valpha: AQTVTQSQPEMSVQEAETVTLSCTYDTSESNYYLFWYKQPPSRQMILVIRQEAYKQQNATENRFSVNFQKAAKSFSLKISDSQLGDTAMYFCAFMKRGNRDDKIIFGKGTRLHILP
Vbeta: GAVVSQHPSWVICKSGTSVKIECRSLDFQATTMFWYRQFPKQSLMLMATSNEGSKATYEQGVEKDKFLINHASLTLSTLTVTSAHPEDSSFYICSASPTSGRRTQYFGPGTRLTVL
On to B3, for which the binding result is listed as “no recognition” in assay [1] and “recognises” in assay [2].
